The target in the test is perlecan purified from Englebreth-Holm-Swarm tumor (UniProt Q05793). Description: SPR. In general terms: SPR reads the build-up and loss of mass on a sensor chip optically.

In article PMC2133180 one finds fold change in RU over the G2/G4 value data, which are given here for 1 substance.

Chain of UniProt Q05793 (Q05793 22-3707): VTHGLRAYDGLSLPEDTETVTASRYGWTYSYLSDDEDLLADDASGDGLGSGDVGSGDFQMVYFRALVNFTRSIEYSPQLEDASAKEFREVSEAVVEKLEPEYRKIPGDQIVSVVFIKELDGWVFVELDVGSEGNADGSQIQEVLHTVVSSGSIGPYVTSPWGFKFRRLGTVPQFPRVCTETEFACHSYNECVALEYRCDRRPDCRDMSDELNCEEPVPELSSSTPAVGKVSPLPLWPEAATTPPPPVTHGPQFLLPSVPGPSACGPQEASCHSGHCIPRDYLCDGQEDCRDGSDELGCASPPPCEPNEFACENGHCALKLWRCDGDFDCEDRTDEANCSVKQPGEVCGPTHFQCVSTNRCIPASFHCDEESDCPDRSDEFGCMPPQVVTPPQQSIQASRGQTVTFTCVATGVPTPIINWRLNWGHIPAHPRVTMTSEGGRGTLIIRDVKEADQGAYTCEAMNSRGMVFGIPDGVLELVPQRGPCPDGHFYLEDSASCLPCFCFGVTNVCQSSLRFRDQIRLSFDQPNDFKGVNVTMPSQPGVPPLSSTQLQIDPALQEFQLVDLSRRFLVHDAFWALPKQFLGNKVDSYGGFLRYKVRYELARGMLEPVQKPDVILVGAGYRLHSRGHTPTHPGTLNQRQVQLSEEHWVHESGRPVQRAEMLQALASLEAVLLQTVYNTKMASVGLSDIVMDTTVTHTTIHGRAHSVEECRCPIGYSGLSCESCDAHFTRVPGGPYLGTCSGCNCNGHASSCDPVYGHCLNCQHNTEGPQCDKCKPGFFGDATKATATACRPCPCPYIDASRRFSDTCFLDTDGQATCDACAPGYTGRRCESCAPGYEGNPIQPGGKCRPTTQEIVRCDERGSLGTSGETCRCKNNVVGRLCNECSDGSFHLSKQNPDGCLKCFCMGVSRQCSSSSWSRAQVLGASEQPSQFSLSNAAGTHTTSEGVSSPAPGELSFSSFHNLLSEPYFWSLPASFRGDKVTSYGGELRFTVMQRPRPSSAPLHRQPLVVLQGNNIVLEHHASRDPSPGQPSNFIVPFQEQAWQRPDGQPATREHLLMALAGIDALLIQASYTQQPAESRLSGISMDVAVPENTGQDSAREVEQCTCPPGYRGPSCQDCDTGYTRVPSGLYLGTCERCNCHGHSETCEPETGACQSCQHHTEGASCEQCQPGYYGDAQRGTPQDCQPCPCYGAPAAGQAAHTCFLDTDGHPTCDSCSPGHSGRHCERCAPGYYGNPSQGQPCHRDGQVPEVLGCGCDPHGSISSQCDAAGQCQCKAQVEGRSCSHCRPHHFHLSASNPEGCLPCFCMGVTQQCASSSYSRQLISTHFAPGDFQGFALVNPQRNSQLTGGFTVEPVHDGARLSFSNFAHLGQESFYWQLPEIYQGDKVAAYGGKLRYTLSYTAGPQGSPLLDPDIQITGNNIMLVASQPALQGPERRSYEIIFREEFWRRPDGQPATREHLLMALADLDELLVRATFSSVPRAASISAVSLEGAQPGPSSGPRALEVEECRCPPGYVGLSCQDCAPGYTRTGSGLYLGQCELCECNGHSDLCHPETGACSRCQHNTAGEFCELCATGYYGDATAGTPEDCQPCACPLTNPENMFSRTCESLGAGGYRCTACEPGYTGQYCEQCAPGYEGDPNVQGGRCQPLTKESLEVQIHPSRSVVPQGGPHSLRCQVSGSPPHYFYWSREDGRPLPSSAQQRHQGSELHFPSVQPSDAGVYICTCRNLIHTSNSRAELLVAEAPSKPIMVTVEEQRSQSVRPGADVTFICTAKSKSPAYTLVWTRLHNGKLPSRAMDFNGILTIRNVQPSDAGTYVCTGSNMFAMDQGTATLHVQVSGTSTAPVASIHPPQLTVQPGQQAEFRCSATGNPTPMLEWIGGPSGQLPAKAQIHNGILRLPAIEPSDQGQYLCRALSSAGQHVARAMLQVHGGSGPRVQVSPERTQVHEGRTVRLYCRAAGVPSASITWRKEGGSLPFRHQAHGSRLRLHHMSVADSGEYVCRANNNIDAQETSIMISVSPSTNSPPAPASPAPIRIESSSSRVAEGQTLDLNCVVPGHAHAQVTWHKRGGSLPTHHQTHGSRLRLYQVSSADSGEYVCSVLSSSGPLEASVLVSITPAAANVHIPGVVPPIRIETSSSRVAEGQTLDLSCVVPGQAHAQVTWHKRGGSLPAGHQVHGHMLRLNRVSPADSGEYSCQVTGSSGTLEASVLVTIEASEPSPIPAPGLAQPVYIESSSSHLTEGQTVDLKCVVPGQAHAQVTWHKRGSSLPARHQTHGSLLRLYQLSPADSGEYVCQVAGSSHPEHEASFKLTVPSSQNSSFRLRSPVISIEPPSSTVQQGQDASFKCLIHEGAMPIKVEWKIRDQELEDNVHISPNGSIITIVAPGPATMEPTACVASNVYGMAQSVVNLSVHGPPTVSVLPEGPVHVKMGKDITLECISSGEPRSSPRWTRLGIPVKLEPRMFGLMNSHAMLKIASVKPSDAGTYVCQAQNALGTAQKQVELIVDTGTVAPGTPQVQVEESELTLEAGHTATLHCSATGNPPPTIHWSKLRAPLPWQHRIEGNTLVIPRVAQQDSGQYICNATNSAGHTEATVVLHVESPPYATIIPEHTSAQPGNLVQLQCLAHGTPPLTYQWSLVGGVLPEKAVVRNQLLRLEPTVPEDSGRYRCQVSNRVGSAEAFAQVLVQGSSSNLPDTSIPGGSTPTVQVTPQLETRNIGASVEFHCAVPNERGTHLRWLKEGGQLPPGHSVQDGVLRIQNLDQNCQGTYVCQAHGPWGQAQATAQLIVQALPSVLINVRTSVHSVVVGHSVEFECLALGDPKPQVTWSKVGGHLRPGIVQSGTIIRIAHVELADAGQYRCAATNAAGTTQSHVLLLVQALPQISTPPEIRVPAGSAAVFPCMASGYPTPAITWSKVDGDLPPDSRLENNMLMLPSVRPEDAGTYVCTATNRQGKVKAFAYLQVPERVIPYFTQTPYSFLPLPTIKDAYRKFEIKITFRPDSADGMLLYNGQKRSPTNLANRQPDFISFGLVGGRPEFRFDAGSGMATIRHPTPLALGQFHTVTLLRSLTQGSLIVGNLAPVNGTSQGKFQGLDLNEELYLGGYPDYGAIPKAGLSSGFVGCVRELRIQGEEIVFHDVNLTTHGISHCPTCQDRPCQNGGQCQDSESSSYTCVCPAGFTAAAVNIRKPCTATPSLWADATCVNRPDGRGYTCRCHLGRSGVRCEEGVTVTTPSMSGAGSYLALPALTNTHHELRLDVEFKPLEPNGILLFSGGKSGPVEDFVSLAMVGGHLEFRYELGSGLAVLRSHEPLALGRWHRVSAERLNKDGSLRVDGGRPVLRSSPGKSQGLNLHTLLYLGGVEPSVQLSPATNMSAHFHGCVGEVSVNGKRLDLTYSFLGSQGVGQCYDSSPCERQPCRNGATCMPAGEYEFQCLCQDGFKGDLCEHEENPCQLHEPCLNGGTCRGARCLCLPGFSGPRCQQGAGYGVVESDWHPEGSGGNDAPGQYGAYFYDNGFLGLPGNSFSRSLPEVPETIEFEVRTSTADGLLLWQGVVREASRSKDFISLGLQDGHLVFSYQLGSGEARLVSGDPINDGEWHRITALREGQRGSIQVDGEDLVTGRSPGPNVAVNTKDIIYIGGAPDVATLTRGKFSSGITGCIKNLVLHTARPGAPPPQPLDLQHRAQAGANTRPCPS

In turn, “quail A12 collagenic-tailed acetylcholinesterase (asymmetric form) (complex)” gave a fold change in RU over the G2/G4 value of 270 fold.
